Test results taken from a protein production outcome set (Wang et al. 2014).

Assay: label from the status in PepcDB records

Sequence | protein production
MPKFDVSKSDLERLIGRSFSIEEWEDLVLYAKCELDDVWEENGKVYFKLDSKDTNRPDLWSAEGVARQIKWALGIEKGLPKYEVKKSNVTVYVDEKLKDIRPYGVYAIVEGLRLDEDSLSQMIQLQEKIALTFGRRRREVAIGIFDFDKIKPPIYYKAAEKTEKFAPLGYKEEMTLEEILEKHEKGREYGHLIKDKQFYPLLIDSEGNVLSMPPIINSEFTGRVTTDTKNVFIDVTGWKLEKVMLALNVMVTALAERGGKIRSVRVVYKDFEIETPDLTPKEFEVELDYIRKLSGLELNDGEIKELLEKMMYEVEISRGRAKLKYPAFRDDIMHARDILEDVLIAYGYNNIEPEEPKLAVQGRGDPFKDFEDAIRDLMVGFGLQEVMTFNLTNKEVQFKKMNIPEEEIVEIANPISQRWSALRKWILPSLMEFLSNNTHEEYPQRIFEVGLATLIDESRETKTVSEPKLAVALAGTGYTFTNAKEILDALMRHLGFEYEIEEVEHGSFIPGRAGKIIVNGRDIGIIGEVHPQVLENWNIEVPVVAFEIFLRPLYRH | not failed
MTRTFDTPLPIDDALDELTAALEASNTAVLVAPPGAGKTTRVPLALLDAPWLRNQKIIVLEPRRIAARASAERMAKTLSEKAGERIGYRVRFGSKVSRATRIEVVTEGIFTRQILDDPELNGVAAVLFDEFHERSLDADLGLALARDAQQGLREDLRILVMSATIDGARVARLLGDAPVVESLGRAFPVETRYLGRRSDAPLERQMAEAIAQALRAETGSVLAFLPGAAEIRRTETMLRERVQDPAVEIVPLFGALDAAVQDRAIQPAPKGQRKVVLATSIAETSLTIEGVRIVVDCGLSRVPRYEPDLGLTRLETVRASRAAVDQRRGRAGRIEPGVCYRLWDEPQTASLPAYTQPEILSADLSSLLLDLAQWGVADPSSLAFLDPPPQPALKEARELLGELGALDPDGRITDEGRSLRAMALPPRLARMIVDAARHDCAKDAAEVAAILTERGLGGDSADLDNRRDQFRRDRSQRASSARQMAQRWATQAASSSPSPQDAGELSSGVLLAFAFPDRVAKNRGNGSFTLANGRGAAVEQTSALARAPYLAVGELTGSAAQGRILLAAPIALSEIELHFGDQITDADEVSFDRSAMALRARRRRALHAITLSEAPLALTPSEQTARVLAEGLVVAGLDRLPWSKQLQQWRGRVMFLRKAEGDPWPDLSDAALAETRENWLVPALFDKTGLKDFSASDLSDALMNLLPWELRARLDREAPTHFEAPTGSKLPIDYEAEQGPTIAVRLQELFGLTTHPSVAGGAVPLVLELLSPAHRPVQVTRDLPGFWRGSYAGVRADLRGRYPRHPWPEDPASAPPTRRAKPKGT | failed
MKRLEVSNQAKLPTQFGEFYIQCFREKGSNGSKDHLVVFTPNFSQNPLVRLHSECLTGDALGSQKCDCGGALQMALERISKEGGLVIYLRQEGRGIGLFNKVNAYALQDKGYDTIQANEMIGFKDDERDYSVAGEILEYYRIKKMRLLTNNPKKIAALEKYAEVTRESLIVCANEHNQGYLEVKKLKMGHLL | failed
MMNTITNIVSYLPYLFAWFLLGYMGIVVLVYTGMLLLSVVQLKREQKLNKQEVYDDYLELTYTKPVSILVPAYNEETGIIETVRSLLSLKYPQTEIVVVNDGSTDQTLEVIIEHFQMVKVGKVIRKQIETEPIKGVYQSTIFPHLLLVDKSNGGKADALNAGLNVSKYPYFCSIDGDSILETDALLKVMKPIVTSRDDEDEVIASGGNVRIANGSDIQMGSVLSVQLAKNPLVVMQVIEYLRAFLMGRIGLSRHNMVLIISGAFSVFAKKWVMEAGGYSKKTVGEDMELVVRLHRLVKEKRLKKRITFVPDPVCWTEAPATFRVLQRQRSRWHRGLMESLWLHRGMTFNPKYGLVGTASIPYFWIVEFFGPVVELMGYLYIVFAFFFGGLYVEFALALFLLFVLYGTVFSMTAVILEGWSLKRYPKVSDMSRLMIFSLFEALWYRPLTVLWRFGAIIEALFRSKAWGEMTRKGLTKAEQKAS | failed
MENFFNQFFESIGEDKNREGLKETPKRVQELWKFLYKGYKEDPRVALKSAYFQGVCDEMIVAQNIEFYSTCEHHLLPFLGNISVGYIPKEKIVGISAIAKLIEIYSRRLQIQERLTIQIAETFDEIIEPRGVIVVCEAKHLCMSMQGVQKQNAIIKTSVLRGLFKKDSKTRAEFMQLLKS | failed
MTRRVKTGIPGVDEILHGGIPERNVVLLSGGPGTGKTIFSQQFLWNGLKMGEPGIYVALEEHPVQVRQNMAQFGWDVKPYEEKGMFAMVDAFTAGIGKSKEYEKYIVHDLTDIREFIEVLRQAIRDINAKRVVVDSVTTLYINKPAMARSIILQLKRVLAGTGCTSIFVSQVSVGERGFGGPGVEHGVDGIIRLDLDEIDGELKRSLIVWKMRGTSHSMRRHPFDITDKGIIVYPDKVLKRGKVLEL | not failed
MEGFVLAGTSSGVGKTVATLATLTALEDAGYQPQPAKAGPDFIDPSHHEALVDTPSRTLDPWLAGEDGMRRTYWRGTGDICVVEGVMGLYDGTKTSTAAVAEGLDLPVVLVVDAKAGMESVAATALGFAQYADRIGVDIEVAGILAQRAHGGRHADGIRDALPEDLTYFGRIPPMSDLEIPDRHLGLHMGSEAGLDRDALSTAAETIDIERLVETARAPPEVATTERNTGDSPADRRVAVAQDSAFCFIYPSVLERLRSEASVEPFSPVAGDSVPDADAIYLPGGYPELHGESLETGGTLDEIAVRAADGVPVYGECGGLMALSESLTTTDGDTYEMAGVLPADIEMQDRYQALDHVELEARADTVAATSGAHRRGHEFHYSAATLGSDASFAFDMVRGDGIDGEHDGLTEYSTIGTYCHCHGESGAFDRLLAVPSKDILEHHHHHH | failed
MRIHSPYPASWALAQRIGYLYSEGEIIYLADTPFERLLDIQRQVGQCQTMTSLSQADFEARLEAVFHQNTGESQQIAQDIDQSVDLLSLSEEMPANEDLLNEDSAAPVIRLINAILSEAIKETASDIHIETYEKTMSIRFRIDGVLRTILQPNKKLAALLISRIKVMARLDIAEKRIPQDGRISLRIGRRNIDVRVSTLPSIYGERAVLRLLDKNSLQLSLNNLGMTAADKQDLENLIQLPHGIILVTGPTGSGKSTTLYAILSALNTPGRNILTVEDPVEYELEGIGQTQVNTRVDMSFARGLRAILRQDPDVVMVGEIRDTETAQIAVQASLTGHLVLSTLHTNSASGAVTRLRDMGVESFLLSSSLAGIIAQRLVRRLCPQCRQFTPVSPQQAQMFKYHQLAVTTIGTPVGCPHCHQSGYQGRMAIHEMMVVTPELRAAIHENVDEQALERLVRQQHKALIKNGLQKVISGDTSWDEVMRVASATLESEA | failed
MIPVFNITSNRGRLLQQISVGDIWGVGRQWANKLISRGIHTAYDLAMTNPHLLKKCFNAVLMRTAMELQGIACGGLEVLEHHHHHH | failed
MSLKHYSIQPANLEFNAEGTPVSRDFDDVYFSNDNGLEETRYVFLGGNQLEARFPEHPHPLFVVAESGFGTGLNFLTLWQAFDQFREAHPQAQLQRLHFISFEKFPLTRADLALAHQHWPELAPWAEQLQAQWPMPLPGCHRLLLDEGRVTLDLWFGDINELISQLDDSLNQKVDAWFLDGFAPAKNPDMWTQNLFNAMARLARPGGTLATFTSAGFVRRGLQEAGFTMQKRKGFGRKREMLCGVMEQTEGHHHHHH | not failed
MDLLLFSDVHGDREACQRLVDRAADVDVVVGAGDFCVARRNLQAPIETLSAIDTPTVLVPGNAETEDELEAQIDAAGWGAAHVLHGGGTTIDGTPFFGLGGGVPVTPFGPWSYDLTEDEARTLLSDCPEGAVLVAHSPPKDAVDRDSKGQSLGSVAVREAIEAHTPRLTVCGHIHGSWEETAHVGPTPVHNAGPHGRIWTLSEADGA | failed
MKMKSKTKSCCQYTQWVVLALLTLIFASCKDNDDATGDFDPNKPVVISEFSPKEGGLGTRMLLYGENFGSDISKIKVTIGGQDSKVVGAKGKSLYCVVPAKAYDGDIKLSILNDEGEEIANTEANEKFVYQKKMLVTTFLGTMYDGNTKYDLKDGPFDDCGGFGGAVWLSFDPKNHNHLYLVGEQHPTRLIDFEKEYVSTVYSGLSKVRTICWTHEADSMIITNDQNNNDRPNNYILTRESGFKVITELTKGQNCNGAETHPINGELYFNSWNAGQVFRYDFTTQETTPLFTIQDSGWEFHIQFHPSGNYAYIVVVNQHYILRSDYDWKTKRLTTPYIVCGQQGAKDWVDGVGKKARMHAPRQGTFVKNPAYKGSSDEYDFYFCDRENHCIRILTPQGRVTTFAGRGSNGTSGYNDGDLRQEARFNHPEGIVYDEERECFFIGDRENRRIRKIGYEE | failed
MVRYPLEPVLSIKKDRVDRAEKVVKEKRRLLELEQEKLRERESERDKVKNHYMQKIRQLREQLDDGTTSDAILKMKAYIKVVAIQLSEEEEKVNKQKENVLAASKELERAEVELTKRRKEEEKTRLHKEEWMKEALKEEARQEEKEQDEMGQLLHQLHKQKQRESGEN | failed
